Data from patent publication US10533231B2, “Artificial bioluminescent enzyme” (NATIONAL INSTITUTE OF ADVANCED INDUSTRIAL SCIENCE AND …, priority 2012, dated 2020).

Experiments:
COS-7 cells [1] = experiment: Luminescence of ALuc25 to ALuc32 in lysate and medium (Example 1-18); format: cell-based; conditions: 20 hours after plasmid introduction
Experimental: After the insertion of a gene encoding an enzyme sequence as mentioned above into a mammalian expression vector (pcDNA3.1 (+)), each plasmid was introduced into COS-7 cells. By the transformation of these cells, each luciferase was expressed, and some of the luciferase was secreted out of the cells and some of the luciferase retained in the cells. 20 hours after the plasmid introduction, media of the cells were sampled, and the remaining cells were lysed with a lysis buffer (lysate preparation). Immediately after 50 μL of assay solution (containing a substrate) was simultaneously added to each prepared medium (5 μL) or lysate (5 μL), the luminescence value was measured using a luminescence analyzer (LAS-4000; FujiFilm) (n=3) (FIG. 18).

[2] = Prolonged activity stability of ALucs secreted in medium (Example 1-19); format: physicochemical; conditions: for prolonged enzymatic activity stability: Day 0 to Day 25
Experimental: The prolonged activity stability of the artificial luciferases (ALucs) developed in the present invention was examined. First, a plasmid expressing each artificial luciferase (ALuc16, ALuc22, ALuc23, ALuc24, ALuc25, and ALuc30) (in the figure, each is referred to as A16, A22, A23, A24, A25, and A30) was introduced into COS-7 cells, and then culturing was continued for 24 hours. By the culturing, each artificial luciferase was secreted into the medium. The artificial luciferase secreted in the medium was collected, and a difference in enzymatic activity was measured under the same conditions in the following manner. On the first day (Day 0), 50 μL of assay solution (containing native coelenterazine, produced by Promega) was added to 5 μL of each medium, and the luminescence value (enzymatic activity) was measured using an LAS-4000 (produced by FujiFilm). In the same manner, the luminescence value on Day 8, Day 16, and Day 25 was compared with the luminescence value on Day 0 (FIG. 19 (A)).

[3] = Temporal change in luminescence after substrate injection, medium 25 days after expression (Example 1-19); format: biochemical
Experimental: 50 μL of an assay solution (containing native coelenterazine, produced by Promega) was added to 5 μL of each medium 25 days after the expression, and the luminescence value (enzymatic activity) was measured using an LAS-4000 (produced by FujiFilm).

COS-7 cells [4] = experiment: Luminescence intensity of tag-containing ALucs secreted into medium (Example 1-21); format: cell-based; conditions: culturing one day, Promega kit with nCTZ
Experimental: To compare the luminescence intensity of novel luciferases, a comparison experiment was performed under the same conditions as Example 1-2 (COS-7 cells, culturing for one day, using an assay kit produced by Promega) (FIG. 21 (B)). Finally, the luminescence intensity of each luciferase secreted into the medium was compared using an assay kit (containing native coelenterazine (nCTZ)) produced by Promega.

COS-7 cells [5] = experiment: Enzymatic activity confirmation of ALuc (section 3-1, 3-2); format: cell-based, African monkey; conditions: vs conventional copepod luciferases
Experimental: First, using a known lipid reagent for gene introduction, an expression vector encoding ALuc is introduced into African monkey-derived COS-7 cells; as a control, an expression vector having a known GLuc without any mutation into the cells is also introduced in the same manner. At a predetermined time (from 10 to 20 hours, for example, 16 hours) after the introduction of the vector, a cell lysate is prepared using a known lysis reagent.
Thereafter, the cell lysate is mixed with a known substrate solution containing coelenterazine, and its color intensity, temporal stability in luminescence, etc., are measured.
The luminescence intensity may be found by measuring the intensity at a specific wavelength using a known luminescence spectrophotometer after addition of a known substrate. By performing the measurement every minute, the temporal stability in luminescence can be evaluated. To measure a shift to a longer wavelength, scanning of the entire wavelength is necessary.

COS-7 cells [6] = experiment: Luminescence characteristics of tag-containing ALucs (Example 1-22); format: cell-based; conditions: medium two days after gene transfer
Experimental: To compare the relative luminescence intensity of these luciferases, the following experiment was conducted. First, a gene encoding each luciferase was subcloned into pcDNA3.1 (+), which is a eukaryotic expression vector, and each vector was introduced into COS-7 cells. Two days after gene transfer, the relative luminescence intensity of luciferase secreted into each medium was compared using a luminescence reagent produced by Promega.

COS-7 cells [7] = experiment: Comparison of luminescence intensity of ALucs (Example 1-2); format: cell-based, African green monkey; conditions: COS-7 cultured overnight, Promega assay solution, LAS-4000
Excerpt: The artificial luciferase (ALuc) genes synthesized by the above process were subcloned into mammalian cell expression vectors (pcDNA3.1 (+)). Each expression vector was transfected with African green monkey kidney-derived COS-7 cells, and the luminescence intensity, luminescence stability, and red-shifted degree of artificial luciferases (ALucs) were compared (FIGS. 2 to 5).
First, the luminescence intensity of artificial luciferases (ALucs) was compared (FIG. 2). For the comparison, COS-7 cells containing a vector encoding each luciferase were cultured overnight, and then the relative luminescence intensity was measured by using an assay solution, which is a mixture of a cell lysis solution and a substrate, produced by Promega, and a luminescence image analyzer (LAS-4000).

COS-7 cells [8] = experiment: Luminescence stability of ALucs after substrate injection (Example 1-3); format: cell-based, African green monkey; conditions: Promega lysis and reaction solution
Experimental: The luminescence stability of the artificial luciferases (ALucs) of the present invention was examined in various respects (FIG. 3). COS-7 cells containing each luciferase gene were cultured for 9 hours, and treated with a cell lysis solution produced by Promega for 20 minutes. Temporal changes in luciferase luminescence intensity after the introduction of a substrate-containing reaction solution produced by Promega were observed every five minutes (FIG. 3A).
This experiment was expanded to artificial luciferases ALuc16 to ALuc25 (FIG. 3BC).

[9] = Heat resistance of ALucs in lysate (Example 1-4); format: physicochemical; conditions: 80° C. for 10 minutes
Experimental: The heat resistance and degree of extracellular secretion of artificial luciferases of the present invention were measured (FIG. 4). First, to measure heat resistance, COS-7 cells containing each luciferase were lysed in cell lysis solutions produced by Promega to prepare lysates. Subsequently, same samples were allowed to stand at room temperature or heated at 80° C. for 10 minutes, and changes in luminescence intensity were compared by using a (substrate-containing) reaction solution produced by Promega.

COS-7 cells [10] = experiment: Degree of extracellular secretion of ALucs (Example 1-4); format: cell-based, African green monkey; conditions: luminescence intensity of the medium, overnight culture
Experimental: Further, each luciferase (ALuc) was introduced into COS-7 cells, culturing was performed overnight, and then the amount of each luciferase (ALuc) secreted from the cells was measured based on the luminescence intensity of the medium (FIG. 4B).

COS-7 cells [11] = experiment: Mammalian two-hybrid assay with luciferase reporters (Example 1-9); format: cell-based, African green monkey
Experimental: First, using a known gene engineering technique, a novel reporter expression vector obtained by inserting a gene encoding MpLuc4 or ALuc16 into a commercially available reporter expression vector (pG5) was constructed. In addition, pG5-GLuc, which is the result of the researchers' previous study, was also prepared (FIG. 9A).
In addition to any one of the above three types of reporter expression vectors, a vector (pACT-MyoD) expressing a muscle regulatory factor (MyoD) and a vector (pBIND-ID) expressing a transcriptional regulator (ID) were cotransfected into COS-7 cells. After culturing overnight in a cell culturing device, a lysis solution and a substrate solution produced by Promega were used to cause a luminescent reaction, and difference in luminescence intensity varying according to the reporter difference was compared.
Along with the measurement, the luminescence value from the supernatant (medium) during cell culturing was simultaneously measured.

B1: ALuc30: artificial luciferase containing a His tag, SEQ ID NO: 32 (protein)
chain: MMGIKVLFALICFALVQANHHHHHHHHDIVGVEGKFGTTDLETDLFTIVEDMNVISRDTDVDANRADRGRRGKLPGKKLPLEVLKELEANAQKAGCTRGCLICLSHIKCTAKMKKWLPGRCESWEGDKETGQGGIGEAIVDIPEIPGFKELAPMEQFIAQVDLCADCTTGCLKGLANVKCSALLKKWLPSRCAGFADKIQAQVDTIKGAGGS
modifications: His tag; Synthetic Aluc30
**Q.** Which results are given for B1?
**A.** luminescence from cell medium (COS-7 cells [1]): strong bioluminescence; luminescence value from lysate (COS-7 cells [1]): extremely higher than those of conventional GLuc and MpLuc4; prolonged enzymatic activity stability [2]: maintained stable enzymatic activity until Day 25; time of maximum luminescence value after infusion of coelenterazine ([3]; after long-term conservation (25 days)): 12 min; temporal change of luminescence after substrate injection ([3]; medium 25 days after expression): several times higher; luminescence intensity of luciferase secreted into the medium (COS-7 cells [4]): relatively high luminescence intensity; luminescence stability (general statement) (COS-7 cells [5]): remarkably stable luminescence signals

B2: ALuc33: artificial luciferase containing an HA-tag, SEQ ID NO: 35 (protein)
chain: MMGIKVLFALICFALVQANMMYPYDVPDYAGVEGKFGTTDLETDLFTIVEDMNVISRDTDVDANRADRGRRGKLPGKKLPLEVLKELEANAQKAGCTRGCLICLSHIKCTAKMKKWLPGRCESWEGDKETGQGGIGEAIVDIPEIPGFKELAPMEQFIAQVDLCADCTTGCLKGLANVKCSALLKKWLPSRCAGFADKIQAQVDTIKGAGGS
modifications: HA tag; Synthetic ALuc33
**Q.** What does the source list for B2?
**A.** luminescence intensity of luciferase secreted into the medium (COS-7 cells [4]): relatively high luminescence intensity; relative luminescence intensity (COS-7 cells [6]): relatively high luminescence intensity; luminescence stability (general statement) (COS-7 cells [5]): remarkably stable luminescence signals

B3: ALuc34: artificial luciferase containing a Flag-tag, SEQ ID NO: 36 (protein)
chain: MMGIKVLFALICFALVQANMMDYKDDDDKVGVEGKFGTTDLETDLFTIVEDMNVISRDTDVDANRADRGRRGKLPGKKLPLEVLKELEANAQKAGCTRGCLICLSHIKCTAKMKKWLPGRCESWEGDKETGQGGIGEAIVDIPEIPGFKELAPMEQFIAQVDLCADCTTGCLKGLANVKCSALLKKWLPSRCAGFADKIQAQVDTIKGAGGS
modifications: Flag tag; Synthetic Aluc34
**Q.** Which results are given for B3?
**A.** luminescence intensity of luciferase secreted into the medium (COS-7 cells [4]): relatively high luminescence intensity; relative luminescence intensity (COS-7 cells [6]): relatively high luminescence intensity; luminescence stability (general statement) (COS-7 cells [5]): remarkably stable luminescence signals

B4: ALuc16: artificial luciferase, SEQ ID NO: 13 (protein)
chain: MMGIKVLFALICFALVQANPTENKDDIDIVGVEGKFGTTDLETDLFTIVEDMNVISRDTDVDANRADRGRRGKLPGKKLPLEVLKELEANAQKAGCTRGCLICLSHIKCTAKMKKWLPGRCESWEGDKETGQGGIGEAIVDIPEIPGFKDLEPMEQFIAQVDLCVDCTTGCLKGLANVKCSDLLKKWLPSRCATFASKIQAQVDKIKGAGGS
modifications: Synthetic ALuc16
**Q.** Which “luminescence intensity higher than that of conventional GLuc, Renilla luciferase and MpLuc4” value (COS-7 cells [7]) does the source give for B4 here?
**A.** The value was “about 50 folds”.

**Q.** What about the “luminescence intensity (initial)” value (COS-7 cells [8]) of the same molecule?
**A.** The value was “advantageous initial luminescence intensity”.

**Q.** And the “change of luminescence intensity by heating” value [9]?
**A.** Its value is “a remarkable reduction in luminescence intensity that may be due to heating was not observed”.

**Q.** And the extracellular secretion (COS-7 cells [10])?
**A.** The extracellular secretion was “relatively high extracellular secretion”.

**Q.** What about the “luminescence value from the supernatant (medium)” value (COS-7 cells [11]; during cell culturing) of the same molecule?
**A.** The value was “slightly strong bioluminescence”.

**Q.** What about the “luminescence intensity as two-hybrid reporter” value (COS-7 cells [11]; lysate, equal conditions, vs MpLuc4 and GLuc reporters) of the same molecule?
**A.** The value was “highest luminescence intensity”.

**Q.** And the “prolonged enzymatic activity stability” value [2]?
**A.** The value was “significant decrease in enzymatic activity”.

**Q.** And the “remaining enzymatic (luminescence) activity vs initial” value ([2]; after 25 days)?
**A.** Its value is 20%.

**Q.** What about the “luminescence stability (general statement)” value (COS-7 cells [5]) of the same molecule?
**A.** The value was “remarkably stable luminescence signals”.
